Test results as given in publication PMC5590901.

Assays:
[1] = molecular target: T1, orexin receptor 1 (OX1R) (human (endogenous in HepG2)) (UniProt O43613)
T1 sequence: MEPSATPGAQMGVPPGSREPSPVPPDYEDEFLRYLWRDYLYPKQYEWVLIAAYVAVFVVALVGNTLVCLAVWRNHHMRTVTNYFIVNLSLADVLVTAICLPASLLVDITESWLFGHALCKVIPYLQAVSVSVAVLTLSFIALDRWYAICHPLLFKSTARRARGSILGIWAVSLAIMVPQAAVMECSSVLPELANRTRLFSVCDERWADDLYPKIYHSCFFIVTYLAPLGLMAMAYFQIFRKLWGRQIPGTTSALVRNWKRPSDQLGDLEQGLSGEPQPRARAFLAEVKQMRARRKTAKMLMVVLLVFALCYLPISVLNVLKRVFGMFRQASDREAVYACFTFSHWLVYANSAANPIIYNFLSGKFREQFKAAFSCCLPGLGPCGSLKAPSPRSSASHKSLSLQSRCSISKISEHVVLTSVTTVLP

[2] = molecular target: T1, orexin receptor 1 (OX1R) (human (endogenous in HepG2)); remark: listed apart in the source
[3] = molecular target: T1, orexin receptor 1 (OX1R) (human (endogenous in HepG2)); remark: listed apart in the source

- GLUT1 protein expression (western blot) in HepG2 cells, orexin A 10^-9 to 10^-7 M for 2 h, fold of untreated cells; blocked by the OX1R inhibitor SB334867 (10^-6 M) [1]: 2.43 fold
- glucose uptake (2-deoxy-D-[3H]glucose) in HepG2 cells, orexin A 10^-9 to 10^-7 M, fold of control; blocked by the OX1R inhibitor SB334867 (10^-6 M) [1]: 1.71 fold
- cellular ATP content in HepG2 cells, orexin A 10^-9 to 10^-7 M for 2 h, fold of control; abrogated by the OX1R inhibitor SB334867 (10^-6 M) [2]: 3.03 fold
- LDHA mRNA (real-time PCR) in HepG2 cells, 10^-7 M orexin A for 2 h, fold against control; dampened by the OX1R inhibitor SB334867 (10^-6 M) [3]: 0.5 fold
- PDK1 mRNA (real-time PCR) in HepG2 cells, 10^-7 M orexin A for 2 h, fold against control; dampened by the OX1R inhibitor SB334867 (10^-6 M) [3]: 0.53 fold
Binder: QPLPDCCRQKTCSCRLYELLHGAGNHAAGILTL [Orexin A]
